Test results from patent publication US20260200990A1, “MODIFIED LONG PEPTIDES SUITABLE FOR USE IN IMMUNISATION” (ISABELLA PHARMA B.V., priority 2022, published 2026).
Ends that are not written are not given here.

Experiments:
[1] = Stability of cysteine and cystine-containing peptides in 20% v/v DMSO in WFI (UPLC-UV-MS purity); type: physicochemical; details: room temperature
Experimental: To examine the effect on stability of a peptide that contains cysteine(s) (non-oxidized, C) or cystine(s) (oxidized, C (C)) in a formulation matrix (20% v/v DMSO in WFI (water for injection), four non-oxidized (SEQ ID NO: 1, 2, 3 and 4) and their oxidized, cystine-containing, peptides were manufactured and individually examined in 20% v/v DMSO (aq.)
Each peptide (2.0 mg) was dissolved in 2.0 ml of 0.09% TFA in H2O: acetonitrile (1:1, v/v). Aliquots of 200 μL were transferred to a 1 mL amber vial and then freeze dried overnight. An aliquot (0.2 mg) was then redissolved in 20% v/v DMSO in WFI (1 mL). After swirling for 2 minutes, a sample was analyzed by UPLC-UV-MS. The remainder of the sample was stored at room temperature and analyzed at different time intervals (1 h, 2 h, 3 h, 4 h). The identity and purity of the purified peptides were then determined by UPLC-UV-MS on a Waters Acquity UPLC/TQD system using an C18 Waters Acquity BEH130 analytical column (1.7 μm particle size, 2.1×150 mm, flow 0.4 mL/min) with a linear gradient (5% B to 95% B, linear gradient in 10 min). The absorbance was measured at 220 nm.
MassLynx v4.1 was used to integrate the individual peaks of the chromatogram in the region of the observed peptide-derived signals. The following ApexTrack peak detection parameters were used for integration: peak-to-peak baseline noise was set at automatic, peak width at 5% height was set at automatic, baseline start threshold of 0.05% and baseline end threshold of 0.05%. The detect shoulder function was turned on. The following response thresholds were set: relative height of 0.20 and relative area of 0.10. After the peak of the desired peptide was identified by MS, the corresponding integral of the peak in the UV chromatogram is reported in Table 2 as percentage of the total integrated peaks, purity (% a/a).
Purity of the non-oxidized and oxidized peptide composition over time was evaluated over 4 h. Additional mass adducts, consistent with the formation of intermolecular or intramolecular disulfide bonds, increased over time in all spectra of cysteine-containing peptides compared to cystine-containing peptides. The purity of the non-oxidized peptides set forth in SEQ ID NO: 1, 3 and 4 declined from >90% a/a at to less than 80% a/a with the lowest stability observed for SEQ ID NO: 1 with a purity of 64% a/a after 4 h. For the cystine-containing peptide analogs, the purity remained >90% a/a after 4 h.

[2] = Stability of peptide mixtures under long term and accelerated storage (UPLC); type: physicochemical; details: peptide in mixture of 6 peptides
Experimental: To examine the effect on stability of peptides that contain cystine (oxidized, C (C)) present in a mixture of 6 peptides, two examples of mixtures of both non-cysteine-containing (NCC1-6) and cystine-containing (SEQ ID NO: 1-6) peptides were assessed. Typical chromatograms of the two mixtures are depicted in FIG. 2. Both mixtures were placed on two different storage conditions, ‘long term storage condition’ (i.e. −20±5° C.) and ‘accelerated storage condition’ (i.e. 5±3° C.).
The purity, the level of impurities, and the quantification per peptide of both mixtures are determined by reversed phase rapid UPLC using a mobile phase gradient of ACN/IPA and water with TFA, and UV detection at λ=220 nm. The method quantifies main peaks and impurities in mixtures of peptides. The reporting threshold for the method is 0.10% a/a.
Both mixtures of six peptides were stored under the two conditions described and by using the analytical method as described. The stability was monitored. The quantity of each of the peptides present in the mix (assay values), the purity, and the individual impurities were measured at several timepoints over a period of 3 months. […] Furthermore, focussing on the individual impurities it is shown that no significant degradation has taken place as all levels remain constant and no new impurities have formed.

[3] = test system: T cells cultured from PBMC from healthy donors; assay: T cell induction by PRAME-based SLPs, IFNy ELISpot (test 1 and test 2); set-up: species or system human; key to ELISPOT IFNy / ELISPOT IFNy, summary of the results in the table: − (negative); + (positive); When at least one donor had a positive response, this is denoted as POS; details: 2 peptide pools
Experimental: The capacity of human-PRAME-based SLPs to activate T cells was studied. The biological activity of the synthesized and purified SLPs was tested using PBMC from healthy donors. Monocytes were isolated using anti-CD14 beads by magnet activated cell sorting (MACS) following the protocol of the supplier (Miltenyi Biotec). In short, PBMCs were isolated by centrifugation over a Ficoll gradient and cryopreserved. To generate dendritic cells (DCs), approximately […] thawed PBMC were used for the isolation of CD14 positive cells. The cells were cultured for three days at 37° C. in 2 ml/well of IMDM 4% human serum (HS) containing 800 U/ml GM-CSF and 500 U/ml IL-4 (Peprotech). After 3 days 1 mL/well of IMDM 4% HS with GM-CSF (2400 U/mL) and IL-4 (1500 U/mL) was added to the monocytes-derived DCs and these adhered cells were cultured for an additional 3 days. On day 6, long peptides distributed over 2 pools were added to monocyte-derived DCs of naive donors at a 13 μM concentration and incubated overnight at 37° C. The next day (day 7) peptide-loaded DCs were harvested, irradiated (1000 rad), washed and mixed in a 1:10 ratio with autologous PBMC in IMDM 8% human serum in the presence of IL-7 (10 ng/ml) and IL-12p70 (100 μg/mL).
On day 10 new DCs were generated and loaded, after 6 days, with SLPs on day 16 as described above. The next day, these peptide-loaded DCs were harvested, irradiated (1000 rad) and washed. Also the cultured T cells were harvested. Both were counted and mixed in a 1:10 ratio (DC:T) in IMDM 8% human serum in the presence of IL-7 (10 ng/ml) and IL-12p70 (100 μg/mL) for the first restimulation. On the same day, new DCs were generated as described above that were loaded with SLPs on day 23 as described above. The next day, peptide-loaded DCs were harvested, irradiated (1000 rad) and washed. Also the cultured and restimulated T cells were harvested. Both were counted and mixed in a 1:10 ratio (DC:T) in IMDM 8% human serum in the presence of IL-7 (10 ng/ml) and IL-12p70 (100 μg/mL) for the second restimulation.
On this day 24, also test 1 was started in which DCs loaded with individual SLPs were cultured with harvested T cells from restimulation 1. For test 1, DCs and harvested T cells were cultured in a 1:10 ratio for 2 days after which cells were transferred to a coated ELISpot plate (see description below). On day 24, new DCs were generated as described above that were loaded with SLPs on day 30 as described above. The next day, peptide-loaded DCs were harvested, irradiated (1000 rad) and washed. Also the cultured twice restimulated T cells were harvested. Both were counted and mixed in a 1:10 ratio (DC:T) in IMDM 8% human serum in the presence of IL-2 (30 IU/mL) and IL-12p70 (100 μg/mL) for the third restimulation.
On day 31, also test 2 was started in which DCs loaded with individual SLPs were cultured with harvested T cells from restimulation 2. For test 2, DCs and harvested T cells were cultured in a 1:10 ratio for 2 days after which cells were transferred to a coated ELISpot plate (see description below).
The T cell cultures were restimulated three times in 1-week cycles using peptide loaded autologous moDCs. After the 2nd and 3rd restimulation, reactivity towards single SLPs was tested (test 1 and test 2, respectively). Reactivity was determined by measuring IFNy production using ELISpot.
For ELISpot analysis, multiscreen plates were coated with an IFNy coating antibody overnight at 4° C. The next day, the plate was washed 4× with PBS and blocking was done using IMDM 8% HS at 37° C. for at least one hour. Each sample was tested in triplicate. As a positive control, phytoheamagglutinin (PHA, 1 μg/mL) was added to cells that were not stimulated with SLP after thawing. The plate was cultured overnight at 37° C. Thereafter, cells were discarded and the plate was washed using PBS/0.05% Tween-20. The IFNy detection antibody was diluted and added to each well and incubated for 2 hours at room temperature. […]

AARLCCQLDPARDVLCLRPVGAESR [Cysteine (C) containing SEQ ID NO: 4, reference compound]
Purity (% a/a) ([1]; Time 0 h): 96.51 % a/a
Purity (% a/a) ([1]; Time 1 h): 90.72 % a/a
Purity (% a/a) ([1]; Time 2 h): 83.13 % a/a
Purity (% a/a) ([1]; Time 3 h): 77.16 % a/a
Purity (% a/a) ([1]; Time 4 h): 72.13 % a/a

AARLCCQLDPARDVLCLRPVGAESR [Cystine(C(C)) containing SEQ ID NO: 4]
Purity (% a/a) ([1]; Time 0 h): 93.50 % a/a
Purity (% a/a) ([1]; Time 1 h): 94.26 % a/a
Purity (% a/a) ([1]; Time 2 h): 93.58 % a/a
Purity (% a/a) ([1]; Time 3 h): 93.16 % a/a
Purity (% a/a) ([1]; Time 4 h): 92.89 % a/a
Assay (net peptide content) (mg/vial) ([2]; Initial): 0.21 mg/vial
Assay (net peptide content) (mg/vial) ([2]; Storage at 5 ± 3° C., T1M): 0.20 mg/vial
Assay (net peptide content) (mg/vial) ([2]; Storage at 5 ± 3° C., T2M): 0.21 mg/vial
Assay (net peptide content) (mg/vial) ([2]; Storage at 5 ± 3° C., T3M): 0.21 mg/vial
Assay (net peptide content) (mg/vial) ([2]; Storage at −20 ± 5° C., T2M): 0.20 mg/vial
Assay (net peptide content) (mg/vial) ([2]; Storage at −20 ± 5° C., T3M): 0.21 mg/vial

HLSLRGLPVCAFSSAGPCALRFTSA [Cysteine (C) containing SEQ ID NO: 1, reference compound]
Purity (% a/a) ([1]; Time 0 h): 95.01 % a/a
Purity (% a/a) ([1]; Time 1 h): 86.88 % a/a
Purity (% a/a) ([1]; Time 2 h): 78.20 % a/a
Purity (% a/a) ([1]; Time 3 h): 70.34 % a/a
Purity (% a/a) ([1]; Time 4 h): 64.12 % a/a

LSAMSTTDLEAYFKDCLFKDWEELG [SEQ ID 2]
Assay (net peptide content) (mg/vial) ([2]; Initial): 0.24 mg/vial
Assay (net peptide content) (mg/vial) ([2]; Storage at 5 ± 3° C., T1M): 0.24 mg/vial
Assay (net peptide content) (mg/vial) ([2]; Storage at 5 ± 3° C., T2M): 0.25 mg/vial
Assay (net peptide content) (mg/vial) ([2]; Storage at 5 ± 3° C., T3M): 0.25 mg/vial
Assay (net peptide content) (mg/vial) ([2]; Storage at −20 ± 5° C., T2M): 0.25 mg/vial
Assay (net peptide content) (mg/vial) ([2]; Storage at −20 ± 5° C., T3M): 0.25 mg/vial

VLSRKYTSFPWLLGCTANWILRGTSFVYVPSALNPA [Cysteine (C) containing SEQ ID NO: 3, HBV Pol fragment, unmodified cysteine comparator, reference compound]
Purity (% a/a) ([1]; Time 0 h): 97.66 % a/a
Purity (% a/a) ([1]; Time 1 h): 93.48 % a/a
Purity (% a/a) ([1]; Time 2 h): 87.94 % a/a
Purity (% a/a) ([1]; Time 3 h): 84.12 % a/a
Purity (% a/a) ([1]; Time 4 h): 79.81 % a/a

VVNHYFQTRHYLHTLWKAGILYKRETTRSASFCGSPYSW (VVNHYFQTRHYLHTLWKAGILYKRETTRSASFC(Cys)GSPYSW) [SEQ ID 5, HBV Pol fragment SLP with cysteinylated cysteine]
Assay (net peptide content) (mg/vial) ([2]; Initial): 0.20 mg/vial
Assay (net peptide content) (mg/vial) ([2]; Storage at 5 ± 3° C., T1M): 0.20 mg/vial
Assay (net peptide content) (mg/vial) ([2]; Storage at 5 ± 3° C., T2M): 0.21 mg/vial
Assay (net peptide content) (mg/vial) ([2]; Storage at 5 ± 3° C., T3M): 0.22 mg/vial
Assay (net peptide content) (mg/vial) ([2]; Storage at −20 ± 5° C., T2M): 0.20 mg/vial
Assay (net peptide content) (mg/vial) ([2]; Storage at −20 ± 5° C., T3M): 0.22 mg/vial

VWTSPRRLVELAGQSLLKDEALAIAALELLPRELF (listed as Homo sapiens) [SEQ ID NO: 42, PRAME-based SLP]
ELISPOT IFNy ([3]; donor BC290, Test 1): −
ELISPOT IFNy ([3]; donor BC290, Test 2): −
ELISPOT IFNy ([3]; donor BC298, Test 1): +
ELISPOT IFNy ([3]; donor BC298, Test 2): +
ELISPOT IFNy ([3]; donor BC305, Test 1): −
ELISPOT IFNy ([3]; donor BC305, Test 2): −
ELISPOT IFNy ([3]; donor BC306, Test 1): −
ELISPOT IFNy ([3]; donor BC306, Test 2): −
ELISPOT IFNy ([3]; donor BC312, Test 1): −
ELISPOT IFNy ([3]; donor BC312, Test 2): −
ELISPOT IFNy ([3]; donor BC315, Test 1): −
ELISPOT IFNy ([3]; donor BC315, Test 2): −
ELISPOT IFNy ([3]; donor BC321, Test 1): +
ELISPOT IFNy ([3]; donor BC321, Test 2): −

YPALMPLYACIQAKQAFTFSPTYKAFLSKQYMNLYPVAR (cysteinylated cysteine) [SEQ ID 6, HBV Pol fragment SLP with cysteinylated cysteine]
Assay (net peptide content) (mg/vial) ([2]; Initial): 0.21 mg/vial
Assay (net peptide content) (mg/vial) ([2]; Storage at 5 ± 3° C., T1M): 0.20 mg/vial
Assay (net peptide content) (mg/vial) ([2]; Storage at 5 ± 3° C., T2M): 0.21 mg/vial
Assay (net peptide content) (mg/vial) ([2]; Storage at 5 ± 3° C., T3M): 0.22 mg/vial
Assay (net peptide content) (mg/vial) ([2]; Storage at −20 ± 5° C., T2M): 0.20 mg/vial
Assay (net peptide content) (mg/vial) ([2]; Storage at −20 ± 5° C., T3M): 0.22 mg/vial
